Test results taken from patent US20260327578A1, “TRANSGLUTAMINASES AND USES THEREOF” (CURIE CO. INC., priority 2023, published 2026).

Tested on: E. coli (ATCC 8739) / C. albicans (ATCC 10231)
Assay: MIC of permeabilizer co-dosants with and without Tgase variant
Format: cell-based
Method: E. coli (ATCC 8739) and C. albicans (ATCC 10231) were acquired from the American Type Culture Collection (ATCC) (Manassas, VA) and maintained as −80° C. frozen glycerol stocks.
The following day, the cell density of the saturated cultures was calculated using OD600 and cultures were diluted to 104 to 10^6 CFU/mL in sterile Mueller Hinton broth to generate the inoculum, and 100 μL of the inoculum was combined with 100 μL of serially diluted Tgase variant A3 (SEQ ID NO: 4) at a range of 0.0001-0.05 weight percent. Growth curves were measured by OD600 on a BioTek® Synergy Plate Reader. All test conditions were performed in triplicate. MIC was determined to be […] (0.005% w/v) against E. coli for the enzyme described in SEQ ID NO: 4 using OD600.
For MIC determination of yeast cultures, C. albicans (ATCC 10231) was grown overnight (24 hours) in Sabouraud Dextrose broth at 30° C. The following day, the cell density of the saturated cultures was calculated using OD600 and cultures were diluted to 104 to 10^6 CFU/mL in sterile Sabouraud Dextrose broth media to generate the inoculum, and 100 μL of the inoculum was combined with 100 μL of serially diluted Tgase variant at a range of 0.0001-0.05 weight percent. The cultures were grown overnight at 30° C. and growth curves were measured by OD600 on a BioTek® Synergy Plate Reader. All test conditions were performed in triplicate. MIC was determined to be […] (0.005% w/v) against C. albicans for the enzyme described in SEQ ID NO: 4 using OD600.
Aseptilase activities of Tgase variant A3 (SEQ ID NO: 4) in combination with each of the three permeabilizer co-dosants, polymyxin B, chlorhexidine, and a 10000:4000:1 mixture by weight of sodium hexametaphosphate, phytic acid and chlorhexidine, were tested. […] The experiments were performed as described in Example 5. The co-dosants were added into Tgase variant A3 (SEQ ID NO: 4) solutions at concentrations of 0.125 g/L, 0.05 g/L, and 350 mM, respectively. The results are shown in Table 12 with Tgase concentrations reported within the table at the best MIC.

B1: A3: Tgase variant S2P Q50S Q74A K91H Q124L K151R K152R N282M G283A relative to SEQ ID NO: 2 (protein, UniProt P81453 77-407, looked up, variant S2P Q50S Q74A K91H Q124L K151R K152R N282M G283A)
Protein-glutamine …: DPDDRVTPPAEPLDRMPDPYRPSYGRAETVVNNYIRKWQQVYSHRDGRKSQMTEEQREWLSYGCVGVTWVNSGAYPTNRLAFASFDEDRFHNELKNGRPRSGETRAEFEGRVAKESFDEEKGFLRAREVASVMNRALENAHDESAYLDNLRRELANGNDALRNEDARSPFYSALRNTPSFKERNGGNHDPSRMKAVIYSKHFWSGQDRSSSADKRKYGDPDAFRPAPGTGLVDMSRDRNIPRSPTSPGEGFVNFDYGWFGAQTEADADKTVWTHGNHYHAPMASLGAMHVYESKFRNWSEGYSDFDRGAYVITFIPKSWNTAPDKVKQGWP
- Aseptilase activity in combination with permeabilizers (co-dosed with polymyxin B, chlorhexidine, or hexametaphosphate/phytic acid/chlorhexidine): further improved by co-dosing with cell membrane permeabilizers
- concentration of Tgase at the best MIC (in combination with 10000:4000:1 hexametaphosphate, phytic acid and chlorhexidine): 200 ppm
- concentration of Tgase at the best MIC (in combination with Chlorhexidine): 200 ppm
- concentration of Tgase at the best MIC (in combination with Polymyxin B): 12.5 ppm
